This is an account of results in paper PMC8660796, “Structural and molecular basis for Cardiovirus 2A protein as a viral gene expression switch”.

Numbering of substitutions follows the chain as printed. Names may count otherwise.

Data set [1] concerns the target T1, EMCV 2A wild type (Encephalomyocarditis virus (EMCV), UniProt P12296 902-1044).
T1 sequence: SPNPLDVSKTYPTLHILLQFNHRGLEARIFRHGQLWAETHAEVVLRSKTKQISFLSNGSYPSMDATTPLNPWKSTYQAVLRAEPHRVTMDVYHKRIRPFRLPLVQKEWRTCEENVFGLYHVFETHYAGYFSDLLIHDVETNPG
Nature of the data set: MST; labelled 2A; MST: 50 mM Tris-HCl pH 7.8, 150 mM NaCl, 10 mM MgCl2, 2 mM DTT, 0.05% Tween 20, 25 C; EMSA: 10 mM Tris-HCl pH 7.4, ~140 mM salt, 2 mM Mg acetate, 1 mM DTT, 5% glycerol, 100 ug/mL tRNA, 37 C; ITC: 50 mM Tris-HCl pH 7.4, 400 mM NaCl, 25 C; tweezers: 20 mM HEPES pH 7.6, 300 mM KCl, 5 mM MgCl2, 5 mM DTT, 0.05% Tween. To be noted: protein: recombinant; tags: C-terminal GlySerLysHis6; label: 5' fluorophore (Dylight 650 in MST, A647/Cy5 in EMSA); unlabelled when 2A is labelled; stem-loop. (In general: A gel shift assay detects complexes by their altered migration in electrophoresis.)

For data set [2], the target named is T1, EMCV 2A wild type. Nature of the data set: EMSA; MST: 50 mM Tris-HCl pH 7.8, 150 mM NaCl, 10 mM MgCl2, 2 mM DTT, 0.05% Tween 20, 25 C; EMSA: 10 mM Tris-HCl pH 7.4, ~140 mM salt, 2 mM Mg acetate, 1 mM DTT, 5% glycerol, 100 ug/mL tRNA, 37 C; ITC: 50 mM Tris-HCl pH 7.4, 400 mM NaCl, 25 C; tweezers: 20 mM HEPES pH 7.6, 300 mM KCl, 5 mM MgCl2, 5 mM DTT, 0.05% Tween. The settings on record: protein: recombinant; tags: C-terminal GlySerLysHis6; label: 5' Cy5.

Data set [3] addresses T1, EMCV 2A wild type. Nature of the data set: EMSA; binding restored; MST: 50 mM Tris-HCl pH 7.8, 150 mM NaCl, 10 mM MgCl2, 2 mM DTT, 0.05% Tween 20, 25 C; EMSA: 10 mM Tris-HCl pH 7.4, ~140 mM salt, 2 mM Mg acetate, 1 mM DTT, 5% glycerol, 100 ug/mL tRNA, 37 C; ITC: 50 mM Tris-HCl pH 7.4, 400 mM NaCl, 25 C; tweezers: 20 mM HEPES pH 7.6, 300 mM KCl, 5 mM MgCl2, 5 mM DTT, 0.05% Tween. To be noted: protein: recombinant; tags: C-terminal GlySerLysHis6; label: 5' Cy5; pseudoknot-like.

B1: EMCV 4 (structured_RNA)
RNA: AGCGGCAGUGUCAUCAAUGGCUCAAACCCUACUGCCGAA
With B1, the binding result with EMCV 2A wild type [1] is listed as “no binding”.

B2: EMCV 3 G7C (structured_RNA)
RNA: GGGUUUUUCAGACUCAACGAGCGGCAGUGUCAUCAAUGGCUCAAACCCUACUGCCGAA
Take B2: in the data set with EMCV 2A wild type [2], the binding result was “no binding”.

B3: EMCV 3 C37G (structured_RNA)
RNA: B2 RNA with C18G, C48G
For the molecule B3, the binding result with EMCV 2A wild type [2] was “no binding”.

B4: EMCV 3 G7C+C37G (structured_RNA)
RNA: B2 RNA with C48G
For B4, the binding result with EMCV 2A wild type [3] was “binds”.
